Tests used:
immature embryos [1] = experiment: Kill curve, ammonium glufosinate concentration for selection, survival percentage; type: cell-based, maize; conditions: for % Survival: plants that rooted over immature embryos transformed
Method: The expression cassette of PAT variant type 3b (SEQ ID NO: 13) was introduced into a binary vector, now referred to as 23419. Binary vector 18857 (described in Table 2), which expresses cPAT-09, was used as a control. […] For vector 23419, 75-86 immature embryos were transformed using Agrobacteria similar to the method described in Example 4. Selection was performed using 10-80 mg/L of ammonium glufosinate (Ignite®). Following selection, plantlets were regenerated and then transferred to rooting media. The survival percentage (%) is shown as the number of plants that rooted over the number of immature embryos initially transformed.

immature embryos [2] = experiment: Second selection experiment, transformation frequency with 40 mg/L ammonium glufosinate or 5 mg/L bialaphos; type: cell-based, maize
Method: 10 mg/L to 40 mg/L of ammonium glufosinate all had survivor transgenic plant candidates for the binary vector comprising PAT variant type 3b. […] A second experiment was performed using 40 mg/L ammonium glufosinate, or using the GS inhibitor bialaphos at 5 mg/L. For this experiment, following transformation the immature embryos were selected, plants were regenerated and rooted, and transgenic plants were identified so that transformation frequency could be calculated.

B1: cPAT-09: control PAT DNA sequence codon optimized to Arabidopsis thaliana (SEQ ID NO: 21); tested here in binary vector 18857 (nucleic acid)
DNA: ATGTCTCCGGAGAGGAGACCAGTTGAGATTAGGCCAGCTACAGCAGCTGATATGGCCGCGGTTTGTGATATCGTTAACCATTACATTGAGACGTCTACAGTGAACTTTAGGACAGAGCCACAAACACCACAAGAGTGGATTGATGATCTAGAGAGGTTGCAAGATAGATACCCTTGGTTGGTTGCTGAGGTTGAGGGTGTTGTGGCTGGTATTGCTTACGCTGGGCCCTGGAAGGCTAGGAACGCTTACGATTGGACAGTTGAGAGTACTGTTTACGTGTCACATAGGCATCAAAGGTTGGGCCTAGGCTCCACATTGTACACACATTTGCTTAAGTCTATGGAGGCGCAAGGTTTTAAGTCAGTGGTTGCTGTTATAGGCCTTCCAAACGATCCATCTGTTAGGTTGCATGAGGCTCTAGGATACACAGCGCGGGGTACACTGCGCGCAGCTGGATACAAGCATGGTGGATGGCATGATGTTGGTTTTTGGCAAAGGGATTTTGAGTTGCCAGCTCCTCCAAGGCCAGTGAGGCCAGTTACCCAGATCTGA
modifications: derived from Streptomyces viridochromogenes
Immature embryos [1]; 10 mg/L ammonium glufosinate
  % Survival: 1.3%
Immature embryos [1]; 20 mg/L ammonium glufosinate
  % Survival: 1.3%
Immature embryos [1]; 40 mg/L ammonium glufosinate
  survival of selection (in words): did not survive selection
  % Survival: 0%
Immature embryos [1]; 80 mg/L ammonium glufosinate
  % Survival: 0%
Immature embryos [2]; 5 mg/L Bialaphos
  Total # Events: 7
  Transformation frequency % (TF): 0.875%
Immature embryos [2]; 40 mg/L ammonium glufosinate
  Total # Events: 5
  Transformation frequency % (TF): 0.625%
